The record followed here is publication PMC7055300, “Theileria parasites subvert E2F signaling to stimulate leukocyte proliferation” (Scientific Reports, 2020).

pKd: −log10 of the molar value.

The assay concerns the target human Retinoblastoma-1 (RB) pocket domain (human) (UniProt P06400). Put plainly: SPR. In general terms: In SPR one partner is held on a chip, and binding of the other changes the refractive index at the surface.

Sequence of human Retinoblastoma-1 (RB) pocket domain (human) (P06400 373-771): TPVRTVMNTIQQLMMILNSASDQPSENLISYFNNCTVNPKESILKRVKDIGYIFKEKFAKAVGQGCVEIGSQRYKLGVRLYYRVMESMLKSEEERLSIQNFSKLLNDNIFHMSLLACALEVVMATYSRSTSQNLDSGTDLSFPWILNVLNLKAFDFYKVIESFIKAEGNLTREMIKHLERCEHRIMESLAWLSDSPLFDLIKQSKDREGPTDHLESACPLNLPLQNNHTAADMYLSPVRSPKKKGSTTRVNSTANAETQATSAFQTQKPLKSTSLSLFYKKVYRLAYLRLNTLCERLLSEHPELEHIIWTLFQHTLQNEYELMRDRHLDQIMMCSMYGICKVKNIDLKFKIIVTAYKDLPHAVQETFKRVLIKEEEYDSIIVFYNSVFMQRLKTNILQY

Take “full-length, recombinant TpGcpE protein (TpMuguga_02g00667) (natural protein)”: the pKd (usually the Kd on a negative log10 scale, so that one unit is a factor of ten) is 7.73.
